How the values were obtained:
[1] = biological target: secreted neuroligin-3 in conditioned medium of optogenetically stimulated Thy1::ChR2 mouse cortical slices (mouse); experiment: cell-based or functional assay
[2] = biological target: recombinant full-length neuroligin-3 (Origene) (mouse) (UniProt Q8BYM5); experiment: cell-based or functional assay
UniProt Q8BYM5, sequence (Q8BYM5 35-825 limits assumed): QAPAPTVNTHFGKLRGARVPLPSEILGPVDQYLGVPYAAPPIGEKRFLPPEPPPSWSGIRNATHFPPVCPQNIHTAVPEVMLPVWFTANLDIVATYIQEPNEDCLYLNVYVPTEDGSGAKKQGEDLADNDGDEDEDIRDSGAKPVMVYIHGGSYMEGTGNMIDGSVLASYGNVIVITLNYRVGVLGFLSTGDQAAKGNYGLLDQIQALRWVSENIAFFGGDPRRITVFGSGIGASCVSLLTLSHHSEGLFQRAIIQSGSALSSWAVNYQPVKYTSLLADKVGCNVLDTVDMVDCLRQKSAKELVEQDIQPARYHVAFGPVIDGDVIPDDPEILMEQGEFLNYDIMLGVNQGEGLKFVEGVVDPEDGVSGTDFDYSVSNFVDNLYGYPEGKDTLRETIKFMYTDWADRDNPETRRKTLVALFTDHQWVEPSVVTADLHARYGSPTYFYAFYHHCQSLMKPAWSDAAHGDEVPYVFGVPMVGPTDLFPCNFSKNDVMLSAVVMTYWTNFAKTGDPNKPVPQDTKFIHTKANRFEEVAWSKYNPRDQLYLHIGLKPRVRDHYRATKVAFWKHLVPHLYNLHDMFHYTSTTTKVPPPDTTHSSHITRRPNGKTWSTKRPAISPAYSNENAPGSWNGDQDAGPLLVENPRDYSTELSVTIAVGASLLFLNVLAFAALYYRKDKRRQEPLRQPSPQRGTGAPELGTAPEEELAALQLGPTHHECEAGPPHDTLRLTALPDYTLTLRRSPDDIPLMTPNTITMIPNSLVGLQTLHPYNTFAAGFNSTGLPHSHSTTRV

- proliferation index of pHGG (SU-pcGBM2) cells, EdU assay, 24 h [1]: 0.34
- proliferation index of pHGG (SU-pcGBM2) cells, EdU assay, 24 h [2]: 0.28
Substance: neurexin-1β (recombinant, R&D Systems) (ligand)
